Experimental data reported in article PMC7567106, “Generalized enzymatic mechanism of catalysis by tetrameric L-asparaginases from mesophilic bacteria” (Scientific Reports, 2020).
Blank lines part the entries; values can stand above or below the molecule they belong to.

How the values were obtained:
[1] = molecular target: L-glutaminase-asparaginase from Pseudomonas 7A, wild type (Pseudomonas 7A) (UniProt Q88K39); experiment: crystal structure; co-crystallised with small ligands, hanging drop; protein 12.5-13.5 mg/ml in 50 mM HEPES pH 7.0, 200 mM NaCl; four protomers in the asymmetric unit as two intimate dimers (A,B) and (C,D)
[2] = molecular target: T1, EcAII (type II L-asparaginase from E. coli) (Escherichia coli, UniProt P00805); experiment: Q-TOF LC/MS of substrate, product and hydroxamate (data not shown); type: biochemical; settings: 25 mM HEPES pH 7.7; 8 mM substrate, 27.8 nM enzyme, 0.4 M NH2OH
T1 construct: gene ansB; periplasmic enzyme, homotetramer; preparation not described here
T1 sequence (P00805 23-348): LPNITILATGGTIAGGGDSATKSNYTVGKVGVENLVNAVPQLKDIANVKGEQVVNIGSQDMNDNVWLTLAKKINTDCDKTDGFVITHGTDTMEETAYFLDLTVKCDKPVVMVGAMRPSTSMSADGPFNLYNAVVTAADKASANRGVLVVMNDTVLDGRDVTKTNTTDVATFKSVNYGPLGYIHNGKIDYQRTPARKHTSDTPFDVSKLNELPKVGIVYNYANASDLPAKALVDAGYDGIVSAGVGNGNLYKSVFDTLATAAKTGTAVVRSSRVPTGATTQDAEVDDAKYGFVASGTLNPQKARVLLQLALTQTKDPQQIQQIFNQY

[3] = molecular target: L-glutaminase-asparaginase from Pseudomonas 7A, K173M variant (Pseudomonas 7A) (UniProt Q88K39); experiment: crystal structure; co-crystallised with small ligands, hanging drop; protein 12.5-13.5 mg/ml in 50 mM HEPES pH 7.0, 200 mM NaCl; four protomers in the asymmetric unit as two intimate dimers (A,B) and (C,D)

stoichiometry N [1]: 4
Molecule: L-glutaminase-asparaginase from Pseudomonas 7A, wild type (from UniProt Q88K39 26-362) (enzyme)

Molecule: NC(=O)C[C@H](N)C(=O)O [L-Asn]
Q-TOF LC/MS of substrate, product and hydroxamate (data not shown) [2]: EcAII(wt) with L-Asn were monitored (not shown)

stoichiometry N [3]: 4
Molecule: L-glutaminase-asparaginase from Pseudomonas 7A, K173M variant (from UniProt Q88K39 26-362) (enzyme)
